Assay results published in US7422862B2, “Methods for identifying modulators of apoptosis” (The Burnham Institute, priority 2001, dated 2008).

Assays:
Bcl-B = target: T1, Bcl-B (Homo sapiens, UniProt Q9HD36); assay: Co-immunoprecipitation with Bcl-2 family proteins in HEK293T cells; assay type: binding
T1 construct: expressed in transfected cells; host or cells: HEK293T
T1 sequence (Q9HD36 1-204): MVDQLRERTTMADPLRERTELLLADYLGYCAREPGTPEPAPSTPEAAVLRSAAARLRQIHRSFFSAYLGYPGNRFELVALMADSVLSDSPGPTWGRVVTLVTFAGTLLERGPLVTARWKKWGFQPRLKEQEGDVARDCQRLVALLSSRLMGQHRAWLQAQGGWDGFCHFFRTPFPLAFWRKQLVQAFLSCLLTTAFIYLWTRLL
Text: (§1) (A) HEK293T cells were transfected with pcDNA3-myc plasmids encoding Bax or other Bcl-2 family proteins with GFP, GFP-HN, or GFP-HN(C8P). Cell lysates were immunoprecipitated with polyclonal anti-GFP antibody. The immunoprecipitates or the lysates were blotted with anti-myc or anti-GFP antibodies, respectively. The slower migrating form of GFP seen in lane 1 (asterisk)represents an alternative form of GFP produced from the wild-type (control) p-EGFP-Cl plasmid (http://clonotech.com). (B) Testes of three-week-old mice were homogenized in lysis buffer (0.1% Triton X-100, 50 mM Tris-HCl, pH7.5, 1 mM EDTA, plus protease inhibitor cocktail). The lysates were immunoprecipitated with control rabbit serum or polyclonal anti-mouse Bax antibody. The immunoprecipitates or the lysates were subjected to electrophoresis in Tris/Tricine gels (16% T, 3% C), electroblotted to PVDF membrane, and immunoblotted with polyclonal anti-HN antibody or monoclonal anti-Bax antibody 6A7 (Trevigen). (C) The affinity (Kd) of Bax/HN interaction was measured by fluorescence polarization assay, using various concentrations of purified recombinant Bax and 40 nM rhodamine-conjugated HN peptide. Control peptide from CD40 is also shown (mean +Std Dev; n=3).
(§2) Furthermore, multiple Bcl-2 family proteins were surveyed for interactions with Humanin by coimmunoprecipitation experiments (FIG. 5A).
(§3) Immunoblotting and immunoprecipitations were performed as follows. Immunoblotting was performed as described previously (Fields and Song, Nature 340:245-246 (1989)). For co-immunoprecipitations, cells were cultured in 50 uM […] Valine Alanine Asparate fluoromethyl-ketone (zVAD-fmk) to prevent apoptosis. Cells were suspended in lysis buffer (50 mM Tris-HCl, pH7.4; 150 mM NaCl; 20 mM EDTA; 50 mM NaF; 0.5% NP-40; 0.1 mM Na3VO4; 20 ug/ml Leupeptin; 20 ug/ml Aprotinin; 1 mM DTT; and 1 mM PMSF). Lysates (200 ul diluted in 1 ml final volume of lysis buffer) were cleared by incubation with 15 ul of protein G-Sepharose 4B (Zymed) and then incubated with 15 ul of polyclonal antibody and 15 ul of protein G at 4° C. overnight. Beads were then washed 4 times with 1.5 mls lysis buffer before boiling in Laemmli sample buffer and performing SDS-PAGE/immunoblotting.

Bcl-2 = Bcl-2 (Homo sapiens, UniProt P10415); assay: as above; assay type: binding
Sequence of Bcl-2 (P10415 whole entry, species assumed): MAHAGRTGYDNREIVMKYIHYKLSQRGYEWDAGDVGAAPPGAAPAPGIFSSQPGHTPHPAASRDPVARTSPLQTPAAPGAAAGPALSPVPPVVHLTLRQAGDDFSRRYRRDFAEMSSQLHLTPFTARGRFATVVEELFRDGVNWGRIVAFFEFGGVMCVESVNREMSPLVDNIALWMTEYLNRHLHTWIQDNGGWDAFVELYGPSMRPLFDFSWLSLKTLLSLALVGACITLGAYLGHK
Text: as §1, §2, §3

Bcl-XL = Bcl-XL (Homo sapiens, UniProt Q07817); assay: as above; assay type: binding
Sequence of Bcl-XL (Q07817 whole entry, species assumed): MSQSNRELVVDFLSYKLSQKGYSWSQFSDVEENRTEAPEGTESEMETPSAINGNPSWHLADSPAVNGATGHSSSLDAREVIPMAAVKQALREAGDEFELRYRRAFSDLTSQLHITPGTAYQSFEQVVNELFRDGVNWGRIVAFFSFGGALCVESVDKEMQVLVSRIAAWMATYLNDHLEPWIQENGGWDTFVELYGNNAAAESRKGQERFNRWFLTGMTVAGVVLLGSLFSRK
Text: as §1, §2, §3

GFP-Bax = target: T2, GFP-Bax (Homo sapiens, UniProt Q07812); assay: STS-induced GFP-Bax translocation to mitochondria in Cos7 cells (confocal microscopy); assay type: cell-based; conditions: peptide transduced with Chariot, 1 μM STS
T2 construct: expressed in transfected cells; host or cells: Cos-7
T2 sequence (Q07812 whole entry): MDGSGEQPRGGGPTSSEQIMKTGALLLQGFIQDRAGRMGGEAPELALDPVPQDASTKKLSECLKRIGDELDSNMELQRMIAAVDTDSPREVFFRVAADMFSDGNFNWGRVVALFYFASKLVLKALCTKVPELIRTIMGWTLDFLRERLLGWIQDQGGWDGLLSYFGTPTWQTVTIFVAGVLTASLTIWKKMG
Procedure: (A-B) Humanin peptide prevents STS-induced Bax translocation in vivo. Cos-7 cells were first transfected with GFP-Bax plasmids. After 24 hrs, untagged wild-type or C8P mutant Humanin peptides were introduced into cells using ChariotTM reagent, and 2 h later cells were treated with 1 μM STS. After 4 h, the percentage of cells with translocated Bax was determined (mean±SD; n=3) by confocal microscopy (A) and representative photomicrographs (B). (C) Wild-type or C8P mutant Humanin peptides were introduced into Cos7 cells using ChariotTM reagent. Cytosolic (C) and mitochondria-containing (M) fractions were isolated by differential centrifugation 23 and analyzed by immunoblotting using anti-Bax (top), Hsp60 (middle) (mitochondrial marker), or Tubulin (bottom) (cytosol marker) antibodies. (D) HN or mutant control double-strand siRNAs were transfected into SF268 cells. After 48 h, cells were cultured without (Control) or with 0.1 uM STS. After 24 hr, cells were fractionated and analyzed by immunoblotting as above. (E) Isolated mitochondria were mixed with 400 ng Bax protein, with or without preincubating Bax with 100 uM Humanin or Humanin(C8P) peptides for 10 min. After 3 h at 30° C., mitochondria were centrifuged and the resulting pellets (P) and supernatants (S) were analyzed by immunoblotting using anti-Cytochrome c (top), Hsp60 (middle), and Bax (bottom) antibodies. […]

Row | co-immunoprecipitation with Bcl-B (Bcl-B) | co-immunoprecipitation with Bcl-2 (Bcl-2) | co-immunoprecipitation with Bcl-XL (Bcl-XL) | Substance | suppression of GFP-Bax translocation (GFP-Bax)
1 | did not co-immunoprecipitate | did not co-immunoprecipitate | did not co-immunoprecipitate | GFP-HN: Wild-type full-length Humanin fused to Green Fluorescent Protein | –
2 | – | – | – | Humanin: 24 amino acid polypeptide, cytosolic form of human Humanin (SEQ ID NO:2); used as synthetic peptide or expressed fusion | about half
